This is an account of results in paper PMC8219380, “The discriminatory power of the T cell receptor” (eLife, 2021).

Test [1] deals with CD8+ T cell blasts expressing 1G4 TCR. Nature of the test: TCR downregulation (tetramer gMFI), plate-bound pMHC + ICAM1. Format: cell-based, human. An excerpt:
Figure 4. The T cell discriminatory power is enhanced by ligation of the receptors CD2 or LFA-1. (A) Protocol for stimulation of CD8^+ T cell blasts with plate-bound recombinant ligands. (B, C) Example dose-response curve for 1G4 T cell blasts stimulated with (B) peptides presented on major histocompatibility complex (pMHC) alone or (C) in combination with CD58 or ICAM1. (D, E) Potency derived from dose-response curves over KD showing the power function fit (D) with pMHC alone or (E) in combination with CD58 or ICAM1. (F) Comparison of the fitted discrimination power (α) and (G) fitted sensitivity ( C ). Shown are geometric means with each dot representing an independent experiment (n = 4–5). (F) In grey the result of a statistical test vs. 1 is shown (p=0.09 for pMHC, p=0.002 for CD58 and ICAM1, p=0.0002 for U87/1G4). Figure 4—source data 1. CD69 dose-response data for Figure 4. […]
For stimulation, T cells were counted, washed once to remove excess IL2, and 75,000 cells in 180–200 μl complete RMPI were dispensed per well. […] Cells were stained for flow cytometry and analysed immediately, or fixed and stored for up to 1 day. […]
Tetramers were produced in-house using refolded monomeric, biotinylated pMHC, and streptavidin-PE (Biolegend) at a 1:4 molar ratio. […] Samples were analysed using a BD X-20 flow cytometer, and data analysis was performed using FlowJo v10 (BD Biosciences).

A further test has as its system CXCR4. Nature of the test: Discrimination power from published data: CXCR4. As to conditions: ID 21; output Voltage; n 5; ns; ref Guyon 2013. The text has this:
The broad method was to obtain a measure of ligand potency from each study. […] If not explicitly provided, we estimated ligand potency as PX , which was defined by the concentration of ligand that produced X response. To do this, we drew a horizontal line at X on a provided dose-response graph and estimated the ligand concentration where the data intercepted the horizontal line. The disadvantage with this method is that ligand potency was estimated based on the single representative graph provided in the study.
Each study often contained or cited a study that contained estimates of KD or koff for the specific TCR/pMHC interactions used in the study. We only included studies where monomeric SPR binding data was available to avoid multimeric binding parameters (e.g. when using tetramers). However, when analysing discrimination by other non-TCR receptors, we included binding data from various methods (e.g. SPR, radio labelled ligands) provided they were monomeric measurements. The use of SPR is important for weak interactions, such as TCR/pMHC, but various methods are available for higher-affinity interactions.
The plot of potency over KD or k off was fit using linear regression on log-transformed axes. We reported the slope of the fit (i.e. the discrimination power, α), the goodness-of-fit measure ( R^2 ), and the p-value for the null hypothesis that the slope is zero (i.e. α=0 ). […]

B1: ICAM1: human ICAM1 ECD, a ligand of LFA-1 (protein, UniProt P05362 28-480, looked up)
extracellular domain: QTSVSPSKVILPRGGSVLVTCSTSCDQPKLLGIETPLPKKELLLPGNNRKVYELSNVQEDSQPMCYSNCPDGQSTAKTFLTVYWTPERVELAPLPSWQPVGKNLTLRCQVEGGAPRANLTVVLLRGEKELKREPAVGEPAEVTTTVLVRRDHHGANFSCRTELDLRPQGLELFENTSAPYQLQTFVLPATPPQLVSPRVLEVDTQGTVVCSLDGLFPVSEAQVHLALGDQRLNPTVTYGNDSFSAKASVSVTAEDEGTQRLTCAVILGNQSQETLQTVTIYSFPAPNVILTKPEVSEGTEVTVKCEAHPRAKVTLNGVPAQPLGPRAQLLLKATPEDNGRSFSCSATLEVAGQLIHKNQTRELRVLYGPRLDERDCPGNWTWPENSQQTPMCQAWGNPLPELKCLKDGTFPLPIGESVTVTRDLEGTYLCRARSTQGEVTRKVTVNVLSPRYE
modifications: extracellular domain
Regarding B1, the TCR downregulation result in test [1] is recorded as “increased TCR downregulation”.

B2: CXCR4: receptor tested with Baclofen and other GABA ligands (protein, UniProt P61073 1-352, looked up)
C-X-C chemokine receptor type …: MEGISIYTSDNYTEEMGSGDYDSMKEPCFREENANFNKIFLPTIYSIIFLTGIVGNGLVILVMGYQKKLRSMTDKYRLHLSVADLLFVITLPFWAVDAVANWYFGNFLCKAVHVIYTVNLYSSVLILAFISLDRYLAIVHATNSQRPRKLLAEKVVYVGVWIPALLLTIPDFIFANVSEADDRYICDRFYPNDLWVVVFQFQHIMVGLILPGIVILSCYCIIISKLSHSKGHQKRKALKTTVILILAFFACWLPYYIGISIDSFILLEIIKQGCEFENTVHKWISITEALAFFHCCLNPILYAFLGAKFKTSAQHALTSVSRGSSLKILSKGKRGGHSSVSTESESSSFHSS
For the molecule B2, the “Power (discrimination power)” value in the test on CXCR4 was 0.5686.
